{"source": "patent US20200291354A1", "about": "(Novartis, published 2020)", "binders": {"B1": {"name": "PD1 minibody (other)", "chain": "QVQLQESGPGVVKPSGTLSLTCAISGGSIGSGGSIRSTRWWSWVRQSPGKGLEWIGEIYHSGSTNYNPSLKSRVTISLDKSRNHFSLRLNSVTAADTAVYYCARQDYGDSGDWYFDLWGKGTMVTVSSGGGSGGGSGGGSGGGSNFMLTQPHSVSESPGKTVTISCTRSSGSIASNSVQWYQQRPGSSPTTVIYEDNQRPSGVPDRFSGSIDSSSNSASLTVSGLKTEDEADYYCQSSDSSAVVFGSGTKLTVLEPKSCDKTHTCPPCGGGSSGGGSGGQPREPQVYTLPPSRDELTKNQVSLTCLVKGFYPSDIAVEWESNGQPENNYKTTPPVLDSDGSFFLYSKLTVDKSRWQQGNVFSCSVMHEALHNHYTQKSLSLSPGK", "notes": "Minibody: single chain VH-linker-VL-hinge-CH3, secreted by T cells electroporated with its mRNA; Variable regions are from PD1-17 of U.S. Pat. No. 7,488,802; also called PD1 minbody"}}, "target": "T1, PD1 (Programmed Death 1) (human, UniProt Q15116 25-288)", "T1 construct": "whole, on cells", "T1 sequence (Q15116 25-288)": "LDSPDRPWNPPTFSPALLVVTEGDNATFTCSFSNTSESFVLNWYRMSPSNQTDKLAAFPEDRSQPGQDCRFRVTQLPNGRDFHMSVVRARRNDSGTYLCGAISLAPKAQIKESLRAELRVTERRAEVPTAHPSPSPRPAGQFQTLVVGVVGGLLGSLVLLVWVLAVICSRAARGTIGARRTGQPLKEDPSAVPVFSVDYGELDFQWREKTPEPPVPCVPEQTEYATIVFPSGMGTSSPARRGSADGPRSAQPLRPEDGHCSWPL", "test": "flow cytometry on T cells electroporated with PD1 and minibody mRNA; biotinylated goat anti-human IgG1 and streptavidin-PE", "excerpt": "FIG. 8 is a panel of images and graphs showing detection of PD1 minibody or PD1-PDL1 bispecific minibody bound on T cells. T cells were electroporated with mRNA (PD1, PD1 and PD1 minibody, and PD1 and PD1-PDL1 bispecific minibody) as specified. The T cells were stained with biotinylated goat anti-human IgG1 and then streptavidin-PE. Biotin anti-human IgG1 specifically detected PD1 minibody or PD1-PDL1 bispecific minibody […] when the cells expressed PD1. PD1 expressed on the T cell acted as an anchor for the secreted antibodies to bind that would otherwise not interact with the T cell.\nFlow Cytometry Analysis. Tumor cells were cultured in the absence or presence of IFN-γ (R&D systems, Minneapolis, Minn.) at 20 ng/m1 for 24 hrs before the cells were harvested for staining with PDL1-PE (BioLegend). Live cells were gated on the live cell population by forward scatter/side scatter (FSC/SSC) and then PDL-1 positivity by PE expression. K562 cells and K562 PDL1/CD19 cells were stained with PDL1-PE (BioLegend, San Diego, Calif.) and CD19-PacBlue (Life Technologies, Carlsbad, Calif.). […]\nFIG. 8 is a panel of images and graphs showing detection of PD1 minibody or PD1-PDL1 bispecific minibody on T cells. […] Biotin anti-human IgG1 specifically detected PD1 minibody or PD1-PDL1 bispecific minibody when the cells expressed PD1. […]"}
{"binder": "B1", "values": [{"measurement": "binding result", "result": "binds"}]}
